This passage reports ratio to parent results from article PMC12102438.

In the assay the target is KHK4083. The assay is described as follows: BLI. As to conditions: 100 nmol/L KHK4083; parent: est. 1.0; read off a plot.
In the case of “Recombinant OX40-His protein (human OX40) (from UniProt P43489) D34A”, the ratio to parent turned out to be 0.8.
As for “Recombinant OX40-His protein (human OX40) (from UniProt P43489) D40A”, the figure is 2.
“Recombinant OX40-His protein (human OX40) (from UniProt P43489) D117A”: the ratio to parent stood at 28.
The value for “Recombinant OX40-His protein (human OX40) (from UniProt P43489) H30A” was 0.6.
As for “Recombinant OX40-His protein (human OX40) (from UniProt P43489) K82A”, the figure is 15; as for “Recombinant OX40-His protein (human OX40) (from UniProt P43489) K120A”, 16.
As for “Recombinant OX40-His protein (human OX40) (from UniProt P43489) S38A”, the figure is 1; as for “Recombinant OX40-His protein (human OX40) (from UniProt P43489) S118A”, 6.4.
As for “Recombinant OX40-His protein (human OX40) (from UniProt P43489) T35A”, the ratio to parent turned out to be 0.6.
The value for “Recombinant OX40-His protein (human OX40) (from UniProt P43489) Y36A” was 1.6.
With “Recombinant OX40-His protein (human OX40) (from UniProt P43489) Y119A”, the ratio to parent stood at 21.
